Residue numbers refer to the chain shown, from its start.
Legend:
Conditions in all cases: protein: recombinant; tags: N-terminal 6His; chain copies: 2; label: 5' biotin on strand 1; blunt
[1] = molecular target: T1, YpdB (Escherichia coli, UniProt P0AE39 1-244); assay: SPR; 1-50 nM protein; lower maximal binding rate and affinity than D53E; SPR (Biacore T200, SA chip): HBS-EP, 10 mM HEPES pH 7.4, 150 mM NaCl, 3 mM EDTA, 0.005% P20, 25 C
T1 sequence: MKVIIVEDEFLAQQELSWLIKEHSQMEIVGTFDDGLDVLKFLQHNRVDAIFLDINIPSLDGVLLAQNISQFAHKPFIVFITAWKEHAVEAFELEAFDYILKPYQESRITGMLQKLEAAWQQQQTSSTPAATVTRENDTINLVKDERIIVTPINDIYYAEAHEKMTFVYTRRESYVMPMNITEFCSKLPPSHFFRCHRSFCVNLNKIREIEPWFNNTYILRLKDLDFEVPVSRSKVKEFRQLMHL

[2] = molecular target: T2, YpdB-D53E (Escherichia coli, UniProt P0AE39 1-244, D53E); assay: SPR; overall affinity from maximal binding rates, active protein concentration; SPR (Biacore T200, SA chip): HBS-EP, 10 mM HEPES pH 7.4, 150 mM NaCl, 3 mM EDTA, 0.005% P20, 25 C
T2 sequence: T1 sequence with D53E

[3] = molecular target: T2, YpdB-D53E; assay: SPR; 1-50 nM protein; binding completely abolished; SPR (Biacore T200, SA chip): HBS-EP, 10 mM HEPES pH 7.4, 150 mM NaCl, 3 mM EDTA, 0.005% P20, 25 C

B1: PyhjX (dsDNA)
DNA 1: GGGGCGCGTCATTCATTCCTGAACTAAGGCATTTCATTCCGTTCTGATGGCATTTCATGCCGGGGG
DNA 2: CCCCCGGCATGAAATGCCATCAGAACGGAATGAAATGCCTTAGTTCAGGAATGAATGACGCGCCCC
For B1, the binding result [1] was “binds” and the Kd [2] was 10 nM.

B2: PyhjX_A (site A inactivated) (dsDNA)
DNA 1: GGGGCGCGTCATTCATTCCTGAACTAATTACGGGACGTCCGTTCTGATGGCATTTCATGCCGGGGG
DNA 2: CCCCCGGCATGAAATGCCATCAGAACGGACGTCCCGTAATTAGTTCAGGAATGAATGACGCGCCCC
B2: no binding [3].

Source: PMC4847170, “Insights into the DNA-binding mechanism of a LytTR-type transcription regulator”
